The values that follow come from patent publication US20160031942A1 (LONDON HEALTH SCIENCES CENTRE RESEARCH, published 2016).

Square brackets hold non-standard residues; d marks the D form. Ends that are not written are not given here. * marks the point of attachment. FITC = O=C1OC2(c3ccc(O)cc3Oc3cc(O)ccc32)c2ccc(NC(=S)*)cc21; Ahx = NCCCCCC(=O)O

For test [1], the target named is T1, Recombinant protein RHAMM-CT (truncated RHAMM, carboxy terminus containing the HA binding domain, amino acids … (UniProt Q00547 706-766)).
T1 chain: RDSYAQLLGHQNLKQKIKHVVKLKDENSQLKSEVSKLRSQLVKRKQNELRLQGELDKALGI
Briefly: SPR.

Test [2] deals with T2, RHAMM (Receptor for Hyaluronic Acid Mediated Motility, CD168) expressed on human cancer cells (human, UniProt O75330 1-724).
T2 sequence (looked up): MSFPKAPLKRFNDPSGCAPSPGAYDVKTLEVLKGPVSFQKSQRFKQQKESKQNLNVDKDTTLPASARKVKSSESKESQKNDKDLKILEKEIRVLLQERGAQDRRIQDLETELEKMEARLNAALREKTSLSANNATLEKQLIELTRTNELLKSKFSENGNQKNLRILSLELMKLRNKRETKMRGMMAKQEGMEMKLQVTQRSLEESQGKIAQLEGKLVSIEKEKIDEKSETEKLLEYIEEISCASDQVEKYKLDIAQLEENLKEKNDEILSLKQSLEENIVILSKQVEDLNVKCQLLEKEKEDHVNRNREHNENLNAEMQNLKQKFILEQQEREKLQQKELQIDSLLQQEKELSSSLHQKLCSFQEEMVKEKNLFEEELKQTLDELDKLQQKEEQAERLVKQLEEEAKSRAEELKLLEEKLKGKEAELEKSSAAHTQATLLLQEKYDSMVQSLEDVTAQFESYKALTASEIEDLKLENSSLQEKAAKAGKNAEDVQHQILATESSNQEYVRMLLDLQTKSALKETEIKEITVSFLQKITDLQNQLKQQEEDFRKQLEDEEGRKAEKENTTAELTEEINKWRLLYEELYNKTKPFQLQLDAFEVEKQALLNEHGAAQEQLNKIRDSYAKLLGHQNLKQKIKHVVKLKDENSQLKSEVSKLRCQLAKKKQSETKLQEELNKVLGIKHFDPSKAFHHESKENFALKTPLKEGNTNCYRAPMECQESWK
The test can be described thus: cell-based or functional assay.

In test [3] the target is T3, Recombinant protein RHAMM-CT (truncated RHAMM, carboxy terminus containing the HA binding domain, amino acids … (Mus musculus (Mouse), UniProt Q00547 706-766)).
T3 construct: Expressed in E. coli BL21 from pPAL7-RHAMM as eXact-tagged protein and purified on Profinity eXact resin (fluoride elution); M.W. 7.1 kDa, pI 10.1; also called recombinant RHAMM
T3 sequence: T1 chain
The test can be described thus: ELISA, fluorescein-labelled peptide on immobilised RHAMM. As for the experimental part: ELISA was carried out to test the ability of FITC-labelled tubulin-derived peptides compete with HA for binding site with RHAMM. Recombinant RHAMM (100 μL, 10 μg/mL in 0.05M PBS, pH=9) was immobilized on 96-well ELISA plates (final concentration of 1 μg/well) and incubated overnight at 4° C. resulting in final amount of protein 1 μg/well. Plates were washed three times with (0.05%) PBS-Tween-20 buffer (200 μL/well), washed with blocking buffer (5% 200 μL/well, PBS-Tween-20 per well), and incubated for 1 hour at room temperature. Following three washes as described above, FITC-labeled tubulin derived peptides (final concentration of 1 μg/mL) and HA (100 μL/well, M.W. 220 kDa, 10 μg/mL in PBS, serial dilutions have been made for HA=1:1, 1:2, 1:4, 1:8, 1:16) were added to plates and incubated overnight at 4° C. Plates were washed as described above, and absorbance was measured at 485/535 nm.
A competitive ELISA was done to determine the selectivity of the peptides to the HA binding domain of RHAMM. In this assay, fluorescein-labelled peptides were used and the effectiveness of unlabelled HA to block the binding of peptides to RHAMM was evaluated. Fluorescein-labelled peptides SEQ ID NOs: 1, 3, 9, 11, 12 and 14, corresponding to peptides 1c, 3c, 9c, 11c, 12c and 14c in FIG. 2B (SEQ ID NOs: 25, 27, 29, 31, 33 and 35) were added to ELISA plates containing immobilized RHAMM, followed by the addition of varying concentration of HA, which is the natural ligand of RHAMM. A decrease in observed fluorescence is seen as HA displaces the fluorescein-labelled peptides if they compete for the same binding site.

In test [4] the target is T1, Recombinant protein RHAMM-CT (truncated …). Briefly: SPR; RHAMM 750 nM. Background: SPR reads the build-up and loss of mass on a sensor chip optically.
The target is the same in test [5]. Briefly: SPR; average.
For test [6] the target is unchanged. Briefly: SPR; RHAMM 1000 nM.
Test [7] addresses T3, Recombinant protein RHAMM-CT (truncated …). Briefly: SPR-based screening (FIG. 3B legend). On the procedure:
ProteON XPR36 system was used for the selection and ranking of different tubulin derived peptides against RHAMM. For immobilization of RHAMM, the ProteON GLC sensor chip surfaces were activated by amine coupling using 100 mM EDAC and 24 mM sulfo-NHS. RHAMM (30 μg/mL in sodium bicarbonate buffer, pH 9.7) was injected at a flow a rate of 30 μl/min. A buffer sample was injected on a different sensor plate for use as a reference. Ethanolamine HCl (1M, pH 8.5) was then injected to deactivate any remaining surface groups. Peptides (10 μM in PBS-T, 2% DMSO) were injected to a RHAMM functionalized surface at 50 μL/min for 3 minutes followed by a 10 minute dissociation (i.e. injection of PBS-T buffer) period. The surfaces were regenerated using two injections of 30 μL of 1M NaCl prior to the injection of the next peptide. In all experiments, reference subtraction was performed using data obtained from reference plate (No RHAMM) and RHAMM functionalized plate.
After immobilization of RHAMM on the SPR sensor chip, injection of a series of tubulin derived peptides was carried out. Association of the peptides with RHAMM proceeded for 3 minutes and the dissociation in analyte free buffer was carried out for 10 minutes. […] For each peptide injection, control sensograms (no immobilized RHAMM and buffer injection) were subtracted from the test sensograms, and the chip surface was regenerated prior to the next peptide injection in order to remove any remaining bound peptides.

Test [8] addresses T1, Recombinant protein RHAMM-CT (truncated …). Briefly: SPR; RHAMM 500 nM.
The target is the same in test [9]. The test can be described thus: SPR.
The target of test [10] is T3, Recombinant protein RHAMM-CT (truncated …). The test can be described thus: SPR (GWC SPRimager II), thiol-containing peptide immobilised on maleimide chip, RHAMM injected at 500, 750, 1000 nM, 1:1 Langmuir fit. As for the experimental part:
After peptide screening, GWC SPRimager®II system was used to determine binding kinetic constants. Thiol-containing peptides at 1 nM concentration in milliQ water were immobilized on a maleimide-functionalized gold-plated chip for 3 hours. Excess peptides were removed by washing with milliQ water. For binding studies, a series of concentrations (500 nM, 750 nM, and 1000 nM) of RHAMM were injected over the immobilized peptides. After a 15 min dissociation phase, the sensor chip surface was regenerated for the next peptide sample injection, via treatment with two 10 min pulse injections of regenerating buffer (2 M NaCl in HBS-EP, pH 7.4) at […]. Baseline returned to the initial value after the regeneration step, confirming the removal of all bound analytes. Data were analyzed and the corresponding dissociation constants (KD) were obtained via non-linear regression fitting to a Langmuir binding model. In all experiments, reference subtraction was performed using data obtained from reference plate (no peptide) and peptide functionalized plate.

In the case of RPDYISWGTQEQ [15], the Kd – broadly, the constant that tells how readily two partners part at equilibrium – in test [1] was below 1 µM.
As to {FITC-Ahx}-FTEAESNMNDLV-NH2 [peptide 14c (SEQ ID NO: 35), fluorescein-conjugated SEQ ID NO: 14], in test [2], the “reduction in cellular fluorescence (uptake in MDA-MB-231 cells) when cells are blocked with anti-RHAMM mAb” value (“reduction in cellular fluorescence” below) was around 65%. In addition, the binding result in test [3] is listed as “binds”.

B1: peptide 12a (SEQ ID NO: 12), unmodified tubulin-derived peptide (peptide)
peptide: EAFEDEEEEIDG-NH2
notes: Synthetic 12-mer made on Rink amide MBHA resin
As for B1, the Kd in [4] is 0.215 µM; in test [5], 0.211 µM; in test [1], 0.211 µM; in test [6], 0.201 µM; in [8] it was 0.217 µM. For the same molecule, the binding result in test [7] was “binds”.

B2: peptide 9a (SEQ ID NO: 9), unmodified tubulin-derived peptide, beta-Ia CTT (peptide)
peptide: EEDFGEEAEEEA-NH2
notes: as for B1
On to B2, for which the binding result in [7] is given as “binds”. In test [9], the Kd amounted to 0.032 µM.

B3: peptide 9c (SEQ ID NO: 29), fluorescein-conjugated SEQ ID NO: 9 (peptide)
peptide: {FITC}-[Ahx]EEDFGEEAEEEA-NH2
notes: also called fluorescein-conjugated HA mimetic
In the case of B3, the “reduction in cellular fluorescence” value in test [2] was around 76%. Besides, in test [3], the binding result is “binds”.
As for GEFEEEEGEDEA [SEQ ID NO 10 (tubulin-derived peptide containing the EEXEDZ motif)], the Kd in test [1] was below 1 µM.

B4: peptide 1a (SEQ ID NO: 1), unmodified tubulin-derived peptide, alpha-Ia CTT (peptide)
peptide: VEGEGEEEGEEY-NH2
notes: Synthetic 12-mer made on Rink amide MBHA resin; also called ala-CTT
As to B4, the binding result in [7] is recorded as “binds”. Besides, the Kd in test [9] was 0.024 µM.
Take DNPDEMDTSREI [17]: in [1], the Kd was below 1 µM.
For DSADGEDEGEEY [SEQ ID NO 2 (tubulin-derived peptide containing the DEXEEZ motif)], the equilibrium dissociation constant (Kd) in [9] was below 1 µM.
With FVHWYVGEGMEE [8], the Kd in [9] stood at 0.176 µM.
Consider GEFSEAREDMAA [7], for which the Kd in test [9] was determined as 0.18 µM.
Ac-C[Ahx]FTEAESNMNDLV-NH2 [peptide 14b (SEQ ID NO: 34), SEQ ID NO: 14 with N-acetyl cysteine modified N-terminus]: the Kd in [4] came out at 0.029 µM; in test [6], 0.0319 µM; in [10] it was 0.03 µM.
Consider {FITC-Ahx}-VEGEGEEEGEEY-NH2 [peptide 1c (SEQ ID NO: 25), fluorescein-conjugated SEQ ID NO: 1], for which, in test [2], the “reduction in cellular fluorescence” value is around 85%. Also, in test [3], the binding result was “binds”.

B5: peptide 3a (SEQ ID NO: 3), unmodified tubulin-derived peptide, alpha-IIIc CTT (peptide)
peptide: SVEAEAEEGEEY-NH2
notes: as for B1
In the case of B5, the Kd in test [4] was found to be 0.325 µM; in [5], 0.331 µM; in test [6], 0.358 µM; in test [9] it was 0.331 µM; in [8], 0.31 µM. Further, in [7], the binding result is “binds”.
On to LEKDYEEVGVDS [6], for which the Kd in [9] turned out to be 0.33 µM.
Consider SNMNDLVSEYQQ [13], for which the Kd in [1] is below 1 µM.
In the case of IDSYEDEDEGEE [SEQ ID NO 4 (tubulin-derived peptide containing the DEXEEZ motif)], the dissociation constant Kd in [9] is below 1 µM.

B6: peptide 11a (SEQ ID NO: 11), unmodified tubulin-derived peptide, beta-IV CTT (peptide)
peptide: GEFEEEAEEEVA-NH2
notes: as for B1
Turning to B6, the Kd in test [4] was determined as 0.145 µM; in test [5], 0.13 µM; in test [1], 0.13 µM; in test [6], 0.12 µM; in [8], 0.126 µM. For the same molecule, in [7], the binding result is listed as “binds”.
In the case of Ac-C[Ahx]EEDFGEEAEEEA-NH2 [peptide 9b (SEQ ID NO: 28), SEQ ID NO: 9 with N-acetyl cysteine modified N-terminus], the Kd in test [4] worked out at 0.0338 µM; in test [10], 0.032 µM.
As to Ac-C[Ahx]VEGEGEEEGEEY-NH2 [peptide 1b (SEQ ID NO: 24), SEQ ID NO: 1 with N-acetyl cysteine modified N-terminus], the dissociation constant Kd in test [10] amounted to 0.024 µM.
For VQQLIDEYHAAT [16], the dissociation constant (Kd) in test [1] was below 1 µM.
As for DSFEEENEGEEF [5], in test [9], the Kd is below 1 µM.
